This note sets out measurements from the supplement of paper PMC9170038.

For the data set, the system named is MS2 coat protein. The data set can be described thus: apparent KD of MS2 coat protein; designed switch direction (-1 OFF switch, 1 ON switch): -1; higher = weaker reporter binding. The essentials: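 Apparent KD, taken as the median over clusters for each design, was obtained by curve-fitting normalised cluster fluorescence. Designed RNA switches had been transcribed on Illumina chips by stalled E. coli RNA polymerase and titrated with SNAP-549-labelled MS2 coat protein, doubling from 0.7 or 1.5 nM to 3 µM.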

The mark [1] stands for this setting: Eterna round: R95, input ligand: microRNA oligo, concentration not stated.
Setting [2] is: input ligand: microRNA oligo, concentration not stated.
Where [3] appears, read: Eterna round: R95, input ligand: FMN 200 uM.
[4] abbreviates: Eterna round: R95, input ligand: none.

Take “AUCAUGUCAGGAUAUGUGACAUGGAUCUUCGGAUCAAGAUCACAGAAGGGACAUGAGGAUCACCCAUGUCGAUC [Ex4-3: 29] (puzzle: Exclusion 4)”: under setting [1], the “apparent KD of MS2 coat protein” value amounted to 66.9 nM.
As to “ACAUGUGUUGUAGGAUAUAGGAGACAUGAGGAUCACCCAUGUUGAUUCAUGUCUAUGGAAACGUCCUAGAAGGACGACAAUAUG [Ex NG2 #19] (Eterna round: R96, puzzle: Exclusion NG 2)”, the “apparent KD of MS2 coat protein” value is, setting by setting: (input ligand: FMN 200 uM) 283 nM; under setting [2], 179 nM; (input ligand: none) 272 nM.
Taken in the same sequence, the figures for “UAACGGGUUUCUUCGUUUACAACAUGAGGAUCACCCAUGUUUGAGGAUAUCCACUAAGCUCUUCAGGAGAAGGCAAACAUAAUG [Teanarxe] (Eterna round: R96, puzzle: Exclusion NG 3)” were 20.6 nM, 12.2 nM and 15.4 nM.
Consider “AACUCUGAGGAGGAUAUACAGUGCGAAAGGACAGUAGAAGGCUUCACAUGAGGAUCACCCAUGUCGAAUAGUGA [EX6 #78] (Eterna round: R97, puzzle: Exclusion 6)”, for which the “apparent KD of MS2 coat protein” value stood at 68 nM (input ligand: FMN 200 uM) and 51.9 nM (input ligand: none).
As for “CUUUUGUGAGGAUAUCAGUAGUAAAUAAUUAAAAUUACUACUGAGAAGGCACAUGAGGAUCACCCAUGUUCCUC [salish99_ex3_r3_080] (puzzle: Exclusion 4)”, the “apparent KD of MS2 coat protein” value under setting [1] was found to be 40.3 nM.
As for “CAUGGAACAUAGGAUAUCUCGCGGCUAGACUGCAGAGAAGGAUGUACAUGAGGAUCACCCAUGUAUGAUCCAGU [Leisceza] (puzzle: Exclusion 6)”, the “apparent KD of MS2 coat protein” value under setting [3] came out at 29.3 nM, the “apparent KD of MS2 coat protein” value under setting [1] came to 15.8 nM and the “apparent KD of MS2 coat protein” value under setting [4] worked out at 17.3 nM.
As for “AGGUCACAUGAGGAUCACCCAUGUCAGGAUAUCGUCACUGGAGCUGCGGCUCCAGUGACGAGAAGGGACAAUUA [E1/6-A3] (Eterna round: R97, puzzle: Exclusion 1)”, the “apparent KD of MS2 coat protein” value came out at 372 nM (input ligand: FMN 200 uM) and 77.2 nM (input ligand: none).
In the case of “ACAUGAGGAUCACCCAUGUCAGGCGGGUCCUCUCCGGCUGUUGAGGAUAUAGUCCGGUAUCCGCGCUAGAAGGUGAGGGCCGGC [Aenatbe mod 18] (Eterna round: R96, puzzle: Exclusion NG 3)”, the “apparent KD of MS2 coat protein” value (input ligand: FMN 200 uM) came out at 18.1 nM, the “apparent KD of MS2 coat protein” value under setting [2] worked out at 16.4 nM and the “apparent KD of MS2 coat protein” value (input ligand: none) amounted to 20.2 nM.
“UUUAAUUUUUUUUUUUUACAAGCUUUUUGCUCGUCUUAUACAUGAGGAUCACCCAUGUAAAUGGGAGAUAAAUUAUC [JMF 17] (puzzle: Sensor v3, turn-off variant 2)”: the “apparent KD of MS2 coat protein” value reads like this: under setting [3], 95.9 nM; under setting [1], 52.4 nM; under setting [4], 92.3 nM.
In the case of “CACAUGGGAACAUGAGGAUCACCCAUGUGAUAGAAAGGUAUGGAGGAUAUCAUACCAUCGCCGUGUGAGAAGGUCAGGCCAACA [Eternabot solution 46] (Eterna round: R96, puzzle: Exclusion NG 3)”, the “apparent KD of MS2 coat protein” value was determined as 409 nM (input ligand: FMN 200 uM), 151 nM under setting [2] and 388 nM (input ligand: none).
In the case of “CUGUGCACGCUGCGGUCCUACAUGAGGAUCACCCAUGUGGUCUGGUGGCGUGGGUCACCGGACUUGGCUCGUCUUGC [salish99_S_TOV1_R5_062] (Eterna round: R97, puzzle: Sensor, turn-off variant 1)”, the “apparent KD of MS2 coat protein” value runs as follows: (input ligand: FMN 200 uM) 22.9 nM; (input ligand: none) 22.5 nM.
On to “AUGGGUCCUCUCGGAGCUACAUGAGGAUCACCCAUGUGUAUUGAGGAUAUCCACUGCUCAGGACGGGAGAAGGCAGUGUACUGU [Ex NG3 #87] (Eterna round: R96, puzzle: Exclusion NG 3)”, for which the “apparent KD of MS2 coat protein” value was 51.4 nM (input ligand: FMN 200 uM), 46.3 nM under setting [2] and 58.4 nM (input ligand: none).
On to “CCCUGACAUGAGGAUCACCCAUGUUAGGAUAUAACAUUUGACACGACAGUGUGAAGUGUUAGAAGGGAUAUGGG [-28.4, -26.7 kcal, A 31%] (Eterna round: R97, puzzle: Exclusion 1)”, for which the “apparent KD of MS2 coat protein” value stood at 36.2 nM (input ligand: FMN 200 uM) and 22.1 nM (input ligand: none).
The matching figures for “GUGCAACAUGAGGAUCACCCAUGUUAGGAUAUGUCCUUGGAGACGCACUAGCUCUGAGACAGAAGGGACAGAGG [Eternabot (Original) Solution 34] (Eterna round: R97, puzzle: Exclusion 1)”: 69.9 nM and 51.2 nM.
The matching figures for “AGAAAACAUGAGGAUCACCCAUGUGAGGAUAUCGCGCUUAACAGGGUCACAGUGGUGUCGAGAAGGUGCCUGGG [Eternabot (L1) Solution 55] (Eterna round: R97, puzzle: Exclusion 1)”: 144 nM and 66.3 nM.
With “ACACAACAUGAGGAUCACCCAUGUCAGGAUAUGCAGAAGAAGAAGAAGAGAAGAGAGAGCAGAAGGGACAACAC [Ex 1 M3] (puzzle: Exclusion 1)”, the “apparent KD of MS2 coat protein” value is, setting by setting: under setting [3], 41.7 nM; under setting [1], 30 nM; under setting [4], 33.5 nM.
Turning to “AUUUAAUUUAGCGAGAUCACAUGAGGAUCACCCAUGUAUAUAUAGGAUAUCAGCUCGUUUAGAGCUGAGAAGGAUAUAUACCGC [ExNG3/7-A2] (Eterna round: R96, puzzle: Exclusion NG 3)”, the “apparent KD of MS2 coat protein” value under setting [2] amounted to 74 nM.
Turning to “ACGCGACAUGAGGAUCACCCAUGUGAGGAUAUGGCCUGUUUGUCGUGUGCUGGCUCUGUCAGAAGGCGCGUGGG [salish99_ex1_r4_041] (Eterna round: R97, puzzle: Exclusion 1)”, the “apparent KD of MS2 coat protein” value came out at 612 nM (input ligand: FMN 200 uM) and 683 nM (input ligand: none).
Consider “AGUACUAACACGAAAGUGUUAGUACAAUAAGCUUGUAGAACAUGAGGAUCACCCAUGUCCUCAUAAGCUCGUCUUAU [Mat - Sensor v3 - Turn-off var 2 - D48] (puzzle: Sensor v3, turn-off variant 2)”, for which the “apparent KD of MS2 coat protein” value reads like this: under setting [3], 52.1 nM; under setting [1], 442 nM; under setting [4], 53.5 nM.
On to “AGUGGUAGUAUCCGAUCCUACAUGAGGAUCACCCAUGUAGCUAGACGUGCACGCGAUGCUCGUCAGACUACCAGAUG [salish99_TOv1_r3_040] (puzzle: Sensor v3, turn-off variant 1)”, for which the “apparent KD of MS2 coat protein” value was determined as 16.5 nM under setting [3], 14.1 nM under setting [1] and 18.1 nM under setting [4].
For the sequence “GUAAACCGGUGAGGAUAUUUAUAAUAGAGCUUUAUGAUAUACAUGAGGAUCACCCAUGUUACUUUAAAGAAGGCAUCGGAAAUG [Mat - Exclusion NG 2 - Mod of JL - D95] (Eterna round: R96, puzzle: Exclusion NG 2)”, under setting [2], the “apparent KD of MS2 coat protein” value worked out at 15.5 nM.
As to “UAACUACAUGAGGAUCACCCAUGUCAGGAUAUGCCGUUAAAUUAACAUCAACAUACGGGUAGAAGGGACAACGU [1st #3] (Eterna round: R97, puzzle: Exclusion 1)”, the “apparent KD of MS2 coat protein” value worked out at 31.5 nM (input ligand: FMN 200 uM) and 29.8 nM (input ligand: none).
With “CAGUACUGCAGGCUUCGGGACAUGAGGAUCACCCAUGUUCGUCUUAUUGAUCUAGGUACGCUGACGUACCUAGAUCU [JL-sv1-2.16 Brourd mod] (puzzle: Sensor v3, turn-off variant 1)”, the “apparent KD of MS2 coat protein” value came to 16.7 nM under setting [3], 18.6 nM under setting [1] and 15.4 nM under setting [4].
As to “GGUGCGUUUGUGAGGAUAUGCUGGUCCUUGGUUCAGCAGAAGGCACAUGAGGAUCACCCAUGUGGUGUCGUACC [salish99_Bmod_Ex4_031] (puzzle: Brourd's mod of Exclusion 4)”, the “apparent KD of MS2 coat protein” value under setting [1] turned out to be 145 nM.
Consider “AUCCUACAUGAGGAUCACCCAUGUCAGGAUAUCCAAGAAAUGUGGCCUGAUUGGCCACGGAGAAGGGACGGGUG [jl-ex1-4.60 ViennaUCT mod] (Eterna round: R97, puzzle: Exclusion 1)”, for which the “apparent KD of MS2 coat protein” value by setting is: (input ligand: FMN 200 uM) 47.2 nM; (input ligand: none) 45 nM.
Consider “AGCUGUGGCCGAGGAUAUCCACAUGAGGAUCACCCAUGUUGAUACGCCGUUAAAGGCGAUAUAAGGGAGAAGGCGGUCUCAGCA [Eli eng2 - 051] (Eterna round: R96, puzzle: Exclusion NG 2)”, for which the “apparent KD of MS2 coat protein” value (input ligand: FMN 200 uM) stood at 12.5 nM, the “apparent KD of MS2 coat protein” value under setting [2] was 7.18 nM and the “apparent KD of MS2 coat protein” value (input ligand: none) worked out at 9.26 nM.
Turning to “GUAAGUUCAGGAUAUGAUGAAUUAAACAUGAGGAUCACCCAUGUAGAUCCUGAAUUAACAUCAGAAGGGAAUAUUU [JL-ex5-4.53 Brourd mod] (Eterna round: R97, puzzle: Exclusion 5)”, the “apparent KD of MS2 coat protein” value by setting is: (input ligand: FMN 200 uM) 22.2 nM; (input ligand: none) 15.5 nM.
The matching figures for “AUUAUGUUAGGAUAUGCUUAUGGUGGAUAAUCGGAUAUGAUGCAGAAGGGACAUGAGGAUCACCCAUGUACUGA [EX4 #24] (Eterna round: R97, puzzle: Exclusion 4)”: 22.3 nM and 22.7 nM.
Regarding “AGCUGUGGCCGAGGAUAUAUACAUGAGGAUCACCCAUGUAGGUGCGGAUACUCGCACCAAUAAGUGUAGAAGGCGGUCUCAGCA [Eli eng2 - 058] (Eterna round: R96, puzzle: Exclusion NG 2)”, the “apparent KD of MS2 coat protein” value is, setting by setting: (input ligand: FMN 200 uM) 10.7 nM; under setting [2], 13.1 nM; (input ligand: none) 13.3 nM.
With “CAGCGAACAGGAUAUACAUGAGGAUCACCCAUGUGUUCCAGCUAGGAAACUAGCAAAUGUAGAAGGGUUCGCUG [Mat - Exclusion 3 - JL Mod - D2] (Eterna round: R97, puzzle: Exclusion 3)”, the “apparent KD of MS2 coat protein” value (input ligand: FMN 200 uM) turned out to be 584 nM and the “apparent KD of MS2 coat protein” value (input ligand: none) came to 324 nM.
